For data set [1], the target named is T1, Syntide-2, synthetic substrate peptide PLARTLSVAGLPGKK
T1 chain: PLARTLSVAGLPGKK

For data set [2], the target named is T2, N-terminus acetylated Syntide-2.
T2 chain: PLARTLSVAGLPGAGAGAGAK

In the next data set the target is T3, Biotin-Syntide-2.
T3 chain: KAGAGPLARTLSVAGLPGK

The record followed here is patent US6670167.

B1: Kinase Domain Chk1 (1-289), C-terminally 6xHis-tagged (protein)
chain: MAVPFVEDWDLVGTLGEGAYGEVQLAVNRVTEEAVAVKIVDMKRAVDCPENIKKEICINKMLNHENVVKFYGHRREGNIQYLFLEYCSGGELFDRIEPDIGMPEPDAQRFFHQLMAGVVYLHGIGITHRDIKPENLLLDERDNLKISDFGLATVFRYNNRERLLNKMCGTLPYVAPELLKRREFHAEPVDVWSCGIVLTAMLAGELPWDQPSDSCQEYSDWKEKKTYLNPWKKIDSAPLALLHKILVENPSARITIPDIKKDRWYNKPLKKGAKRPRVTSGGVSESPSGHHHHHH
As to B1, in data set [1], the Rate/min (/min (at 7.3 nM enzyme)) came out at 0.02. In addition, the Activity came to 72% in data set [2] and 67% with Biotin-Syntide-2.

B2: Full Length Chk1 (amino acids 1-476 of SEQ ID NO. 2), preparation HA2-013 (protein)
chain: MAVPFVEDWDLVGTLGEGAYGEVQLAVNRVTEEAVAVKIVDMKRAVDCPENIKKEICINKMLNHENVVKFYGHRREGNIQYLFLEYCSGGELFDRIEPDIGMPEPDAQRFFHQLMAGVVYLHGIGITHRDIKPENLLLDERDNLKISDFGLATVFRYNNRERLLNKMCGTLPYVAPELLKRREFHAEPVDVWSCGIVLTAMLAGELPWDQPSDSCQEYSDWKEKKTYLNPWKKIDSAPLALLHKILVENPSARITIPDIKKDRWYNKPLKKGAKRPRVTSGGVSESPSGFSKHIQSNLDFSPVNSASSEENVKYSSSQPEPRTGLSLWDTSPSYIDKLVQGISFSQPTCPDHMLLNSGLLGTPGSSQNPWQRLVKRMTRFFTKLDADKSYQCLKETCEKLQYQWKKSCMNQVTISTTDRRNNKLIFKVNLLEMDDKILVDFRLSKGDGLEFKRHFLKIKGKLIDIVSSQKVWLPATHHHHHH
In the case of B2, in data set [1], the Activity is listed as 1 (control) and the Rate/min (/min (at 75 nM enzyme)) was 0.019.
